± gives the uncertainty stated by the source.

The nature of this data set: self-splicing fitness, log relative to wild type (ln ratio); higher = more splicing; Tetrahymena group I intron in knt gene, E. coli kanamycin selection, DiMSum; sequences stand for … in CUCUCU…GGAGGGAAAAGUUAUCAGGCAUGCACCUGGUAGCUAGUCUUUAAACCAAUAGAUUGCAUCGGUUUAAAAGGCAAGACCGUCAAAUUGCGGGAAAGGGGUCAACAGCCGUUCAGUACCAAGUCUCAGGGGAAACUUUGAGAUGGCCUUGCAAAGGGUAUGGUAAUAAGCUGACGGACAUGGUCCUAACCACGCAGCCAAGUCCUAAGUCAACAGAUCUUCUGUUGAUAUGGAUGCAGUUCACAGACUAAAUGUCGGUCGGGGAAGAUGUAUUCUUCUCAUAAGAUAUAGUCGGACCUCUCCUUAAUGGGAGCUAGCGGAUGAAGUGAUGCAACACUGGAGCCGCUGGGAACUAAUUUGUAUGCGAAAGUAUAUUGAUUAGUUUUGGAGUACUCGUGGUCG
The procedure, abridged: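 A randomised library covering all eight P1ex-region intron nucleotides was built with the intron in the knt kanamycin-resistance gene on pET-22b(+) and held in E. coli BL21(DE3). Cells were grown overnight at 37°C or 30°C on LB agar, with or without 25 μg/mL kanamycin, plus 100 μg/mL carbenicillin, 50 μM IPTG and 0.2% rhamnose, and pooled colonies were amplicon-sequenced on an Illumina HiSeq 2500. DiMSum fitness is the error-weighted combination of wild-type-normalised replicate fold changes, kanamycin versus none.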

On to GGGGAGCAAUAUUACGGUAA, for which the “self-splicing fitness (ln)” value is, setting by setting: (30 °C) -2.05 ± 0.28; (37 °C) -2.82 ± 0.3.
In the case of CAGCAGCAAUAUUACGAUCU, the “self-splicing fitness (ln)” value by setting is: (30 °C) -3.54 ± 0.35; (37 °C) -2.38 ± 0.19.
In the same order, the values of GAAGAGCAAUAUUACGCCCC are -1.93 ± 0.17 and -0.902 ± 0.18.
On the same counts, the results for GGAAAGCAAUAUUACGUCGC are -0.897 ± 0.17 and -0.926 ± 0.2.
Take UAUCAGCAAUAUUACGGUUC: the “self-splicing fitness (ln)” value was -2.42 ± 0.14 (30 °C) and 0.223 ± 0.12 (37 °C).
In the same order, the values of GAAAAGCAAUAUUACGGUAG are -3.24 ± 0.18 and -1.53 ± 0.13.
For the sequence GUGCAGCAAUAUUACGUCAC, the “self-splicing fitness (ln)” value (37 °C) was -2.14 ± 0.21.
In the case of AGACAGCAAUAUUACGGCAC, the “self-splicing fitness (ln)” value by setting is: (30 °C) -0.629 ± 0.086; (37 °C) -1.09 ± 0.094.
GAUAAGCAAUAUUACGUCCC: the “self-splicing fitness (ln)” value is, setting by setting: (30 °C) -0.291 ± 0.2; (37 °C) -0.349 ± 0.25.
On the same counts, the results for GACUAGCAAUAUUACGUAAC are -1.33 ± 0.073 and -0.875 ± 0.1.
On the same counts, the results for UACUAGCAAUAUUACGCUGU are -4.54 ± 0.28 and -3.27 ± 0.33.
On the same counts, the results for GGAUAGCAAUAUUACGGCAA are -0.818 ± 0.19 and -0.178 ± 0.2.
AUGCAGCAAUAUUACGCGUU: the “self-splicing fitness (ln)” value reads like this: (30 °C) -2.4 ± 0.088; (37 °C) -2.7 ± 0.19.
On the same counts, the results for CGAAAGCAAUAUUACGCAUU are -4.46 ± 0.42 and -2.94 ± 0.37.
As for CGCAAGCAAUAUUACGUCUU, the “self-splicing fitness (ln)” value is, setting by setting: (30 °C) -4.05 ± 0.26; (37 °C) -3.12 ± 0.22.
For the sequence CAAGAGCAAUAUUACGUUAA, the “self-splicing fitness (ln)” value is, setting by setting: (30 °C) -3.49 ± 0.35; (37 °C) -2.33 ± 0.22.
For CAACAGCAAUAUUACGCAUA, the “self-splicing fitness (ln)” value is, setting by setting: (30 °C) -2.7 ± 0.12; (37 °C) -1.4 ± 0.098.
UGGUAGCAAUAUUACGAUGU: the “self-splicing fitness (ln)” value (30 °C) was -3.19 ± 0.19 and the “self-splicing fitness (ln)” value (37 °C) is -2.12 ± 0.26.
Turning to GAAAAGCAAUAUUACGACCC, the “self-splicing fitness (ln)” value is, setting by setting: (30 °C) 0.23 ± 0.13; (37 °C) -0.182 ± 0.18.
Regarding GGAAAGCAAUAUUACGGCAU, the “self-splicing fitness (ln)” value reads like this: (30 °C) -1.03 ± 0.13; (37 °C) -0.672 ± 0.15.
With UGAUAGCAAUAUUACGGUUC, where the note is “37 °C”, the “self-splicing fitness (ln)” value is -1.46 ± 0.27.
With CUUAAGCAAUAUUACGGGUC, the “self-splicing fitness (ln)” value (30 °C) was -4.47 ± 0.34 and the “self-splicing fitness (ln)” value (37 °C) is -2.98 ± 0.23.
Take GGACAGCAAUAUUACGAGCG: the “self-splicing fitness (ln)” value was -0.482 ± 0.081 (30 °C) and 0.0554 ± 0.12 (37 °C).
As for GAGGAGCAAUAUUACGUUCA, the “self-splicing fitness (ln)” value is -1.18 ± 0.081 (30 °C) and -0.275 ± 0.11 (37 °C).
Take AGGUAGCAAUAUUACGUGGA: the “self-splicing fitness (ln)” value is -3.365 ± 0.027 (30 °C) and -2.61 ± 0.037 (37 °C).
As for UUGAAGCAAUAUUACGUAUC, the “self-splicing fitness (ln)” value (37 °C) is -1.93 ± 0.42.
With AGGAAGCAAUAUUACGUCUC, the “self-splicing fitness (ln)” value (30 °C) is -2.91 ± 0.18 and the “self-splicing fitness (ln)” value (37 °C) is -1.48 ± 0.21.
In the same order, the values of CGCUAGCAAUAUUACGCCUU are -2.49 ± 0.27 and -0.069 ± 0.19.
In the same order, the values of GGCAAGCAAUAUUACGGAAA are -1.55 ± 0.12 and -1.27 ± 0.13.
In the same order, the values of CGCCAGCAAUAUUACGCUAG are -2.94 ± 0.16 and -2.4 ± 0.23.
As to CCGCAGCAAUAUUACGUAGC, the “self-splicing fitness (ln)” value (37 °C) was -0.697 ± 0.22.
Take UGCGAGCAAUAUUACGUUAA: the “self-splicing fitness (ln)” value is, setting by setting: (30 °C) -2.48 ± 0.29; (37 °C) -2.45 ± 0.31.
For the sequence UACUAGCAAUAUUACGGGAC, the “self-splicing fitness (ln)” value is -3.54 ± 0.17 (30 °C) and -2.72 ± 0.16 (37 °C).
As for ACCCAGCAAUAUUACGUUAG, the “self-splicing fitness (ln)” value was -3.31 ± 0.11 (30 °C) and -3.09 ± 0.15 (37 °C).
On the same counts, the results for CGCAAGCAAUAUUACGAACA are -0.432 ± 0.1 and 0.252 ± 0.1.
As for GACUAGCAAUAUUACGAAUU, the “self-splicing fitness (ln)” value (30 °C) is -1.35 ± 0.092 and the “self-splicing fitness (ln)” value (37 °C) was -0.277 ± 0.11.
In the same order, the values of UGAUAGCAAUAUUACGUGCG are -0.579 ± 0.1 and -0.921 ± 0.087.
On the same counts, the results for AACCAGCAAUAUUACGAACG are -1.27 ± 0.08 and -1.25 ± 0.089.
On the same counts, the results for CAUCAGCAAUAUUACGAUCC are -1.56 ± 0.12 and -0.817 ± 0.16.
Regarding GGGUAGCAAUAUUACGCUGA, the “self-splicing fitness (ln)” value by setting is: (30 °C) -2.05 ± 0.15; (37 °C) 0.00831 ± 0.17.
In the same order, the values of ACUUAGCAAUAUUACGUCUU are -0.647 ± 0.084 and -4.56e-06 ± 0.099.
In the same order, the values of CAAGAGCAAUAUUACGGCUG are -0.309 ± 0.098 and -0.473 ± 0.16.
In the same order, the values of GGUGAGCAAUAUUACGCGGA are -2.35 ± 0.19 and -1.57 ± 0.15.
With CCGAAGCAAUAUUACGGGGC, the “self-splicing fitness (ln)” value (30 °C) was -3.54 ± 0.24 and the “self-splicing fitness (ln)” value (37 °C) is -1.64 ± 0.24.
AAACAGCAAUAUUACGCUAC: the “self-splicing fitness (ln)” value (30 °C) is -3.84 ± 0.2 and the “self-splicing fitness (ln)” value (37 °C) was -3.56 ± 0.24.
UAGAAGCAAUAUUACGUUCG: the “self-splicing fitness (ln)” value was -0.157 ± 0.067 (30 °C) and 0.264 ± 0.088 (37 °C).
Regarding UAGUAGCAAUAUUACGAGGA, for the setting “37 °C”, the “self-splicing fitness (ln)” value is -1.81 ± 0.46.
Consider CCCUAGCAAUAUUACGCCUC, for which the “self-splicing fitness (ln)” value is -3.29 ± 0.27 (30 °C) and -3.81 ± 0.31 (37 °C).
On the same counts, the results for ACUCAGCAAUAUUACGGGGG are -1.68 ± 0.11 and -1.45 ± 0.14.
Consider GGUAAGCAAUAUUACGUCCU, for which the “self-splicing fitness (ln)” value reads like this: (30 °C) -1.17 ± 0.2; (37 °C) -0.999 ± 0.23.
In the same order, the values of AAACAGCAAUAUUACGGCCC are -2.15 ± 0.2 and -0.625 ± 0.23.
Consider GUAGAGCAAUAUUACGAGAA, for which the “self-splicing fitness (ln)” value was -3.8 ± 0.34 (30 °C) and -1.72 ± 0.47 (37 °C).
In the same order, the values of UCUUAGCAAUAUUACGUCCA are -1.92 ± 0.13 and -1.93 ± 0.18.
GCGCAGCAAUAUUACGAUUG: the “self-splicing fitness (ln)” value runs as follows: (30 °C) -2.57 ± 0.073; (37 °C) -1.28 ± 0.1.
As for CUUAAGCAAUAUUACGAUAA, for the setting “37 °C”, the “self-splicing fitness (ln)” value is -3.18 ± 0.35.
For CGUGAGCAAUAUUACGAAAC, the “self-splicing fitness (ln)” value (37 °C) is -0.708 ± 0.31.
For UGAUAGCAAUAUUACGUUGC, the “self-splicing fitness (ln)” value is -2.16 ± 0.17 (30 °C) and -2.32 ± 0.28 (37 °C).
As for UACCAGCAAUAUUACGGAAA, the “self-splicing fitness (ln)” value (30 °C) is -0.915 ± 0.073 and the “self-splicing fitness (ln)” value (37 °C) was -0.747 ± 0.077.
As for UGGCAGCAAUAUUACGAGUC, the “self-splicing fitness (ln)” value reads like this: (30 °C) -2.79 ± 0.17; (37 °C) -3.11 ± 0.23.
For the sequence CUCAAGCAAUAUUACGUUAC, the “self-splicing fitness (ln)” value reads like this: (30 °C) -4.46 ± 0.31; (37 °C) -3.47 ± 0.29.
In the same order, the values of AUCUAGCAAUAUUACGCUAU are -3.15 ± 0.21 and -1.49 ± 0.14.
For CGACAGCAAUAUUACGCCAU, the “self-splicing fitness (ln)” value by setting is: (30 °C) -3.77 ± 0.3; (37 °C) -1.51 ± 0.32.
On the same counts, the results for GAAAAGCAAUAUUACGCUUG are -1.72 ± 0.13 and -0.918 ± 0.14.
Take CAGCAGCAAUAUUACGUGCA: the “self-splicing fitness (ln)” value is -1.03 ± 0.061 (30 °C) and -0.673 ± 0.066 (37 °C).
Consider UAAGAGCAAUAUUACGUUGU, for which the “self-splicing fitness (ln)” value is, setting by setting: (30 °C) -1.95 ± 0.2; (37 °C) -0.367 ± 0.31.
In the same order, the values of AUGUAGCAAUAUUACGCUCG are -0.227 ± 0.078 and 0.00954 ± 0.13.
Consider CAGGAGCAAUAUUACGUGGG, for which the “self-splicing fitness (ln)” value runs as follows: (30 °C) -2.85 ± 0.18; (37 °C) -2.31 ± 0.15.
In the same order, the values of UGUCAGCAAUAUUACGUAGG are -0.865 ± 0.079 and -0.275 ± 0.1.
In the case of ACGGAGCAAUAUUACGGCUU, the “self-splicing fitness (ln)” value (30 °C) was -3.11 ± 0.4.
Consider AGUGAGCAAUAUUACGAAGG, for which the “self-splicing fitness (ln)” value is -3.45 ± 0.37 (30 °C) and -1.41 ± 0.38 (37 °C).
As for CCGGAGCAAUAUUACGUCAA, the “self-splicing fitness (ln)” value was -4.11 ± 0.32 (30 °C) and -3.39 ± 0.26 (37 °C).
For GAACAGCAAUAUUACGCUUG, the “self-splicing fitness (ln)” value by setting is: (30 °C) -0.92 ± 0.072; (37 °C) -0.731 ± 0.087.
On the same counts, the results for GACCAGCAAUAUUACGCUGG are -3.16 ± 0.13 and -2.95 ± 0.21.
In the same order, the values of UGUGAGCAAUAUUACGUUAA are -2.97 ± 0.31 and -2.44 ± 0.37.
In the same order, the values of UCUUAGCAAUAUUACGCUUC are -4.09 ± 0.35 and -2.41 ± 0.19.
With GACCAGCAAUAUUACGGACU, the “self-splicing fitness (ln)” value is -1.55 ± 0.082 (30 °C) and -0.595 ± 0.1 (37 °C).
As for UUUGAGCAAUAUUACGGCGC, the “self-splicing fitness (ln)” value (30 °C) is -2.21 ± 0.35.
With GGACAGCAAUAUUACGGCCG, the “self-splicing fitness (ln)” value is, setting by setting: (30 °C) -0.0795 ± 0.14; (37 °C) -0.000523 ± 0.19.

The values are drawn from the supplement of paper PMC7877785.
